± gives the standard deviation of the averaged measurements.
Assay: total protein half-life in vivo (active degradation + dilution); higher = more stable protein
[1] = E. coli NCM3722 delta-clpP delta-lon delta-hslV, growth: N-lim chemostat, doubling time 6 h
[2] = E. coli NCM3722 delta-clpP, growth: N-lim chemostat, doubling time 6 h
[3] = E. coli NCM3722 delta-hslV, growth: N-lim chemostat, doubling time 6 h
[4] = E. coli NCM3722 delta-lon, growth: N-lim chemostat, doubling time 6 h
[5] = E. coli NCM3722 delta-smpB, growth: N-lim chemostat, doubling time 6 h
[6] = wild type E. coli NCM3722, growth: C-lim chemostat, doubling time 3 h
[7] = wild type E. coli NCM3722, growth: C-lim chemostat, doubling time 6 h
[8] = wild type E. coli NCM3722, growth: C-lim chemostat, doubling time 12 h
[9] = wild type E. coli NCM3722, growth: N-lim chemostat, doubling time 6 h
[10] = wild type E. coli NCM3722, growth: N-lim chemostat, doubling time 12 h
[11] = wild type E. coli NCM3722, growth: P-lim chemostat, doubling time 6 h
[12] = wild type E. coli NCM3722, growth: P-lim chemostat, doubling time 12 h

## MMNKSNFEFLKGVNDFTYAIACAAENNYPDDPNTTLIKMRMFGEATAKHLGLLLNIPPCENQHDLLRELGKIAFVDDNILSVFHKLRRIGNQAVHEYHNDLNDAQMCLRLGFRLAVWYYRLVTKDYDFPVPVFVLPERGENLYHQEVLTLKQQLEQQVREKAQTQAEVEAQQQKLVALNGYIAILEGKQQETEAQTQARLAALEAQLAEKNAELAKQTEQERKAYHKEITDQAIKRTLNLSEEESRFLIDAQLRKAGWQADSKTLRFSKGARPEPGVNKAIAEWPTGKDETGNQGFADYVLFVGLKPIAVVEAKRNNIDVPARLNESYRYSKCFDNGFLRETLLEHYSPDEVHEAVPEYETSWQDTSGKQRFKIPFCYSTNGREYRATMKTKSGIWYRDVRDTRNMSKALPEWHRPEELLEMLGSEPQKQNQWFADNPGMSELGLRYYQEDAVRAVEKAIVKGQQEILLAMATGTGKTRTAIAMMFRLIQSQRFKRILFLVDRRSLGEQALGAFEDTRINGDTFNSIFDIKGLTDKFPEDSTKIHVATVQSLVKRTLQSDEPMPVARYDCIVVDEAHRGYILDKEQTEGELQFRSQLDYVSAYRRILDHFDAVKIALTATPALHTVQIFGEPVYRYTYRTAVIDGFLIDQDPPIQIITRNAQEGVYLSKGEQVERISPQGEVINDTLEDDQDFEVADFNRGLVIPAFNRAVCNELTNYLDPTGSQKTLVFCVTNAHADMVVEELRAAFKKKYPQLEHDAIIKITGDADKDARKVQTMITRFNKERLPNIVVTVDLLTTGVDIPSICNIVFLRKVRSRILYEQMKGRATRLCPEVNKTSFKIFDCVDIYSTLESVDTMRPVVVRPKVELQTLVNEITDSETYKITEADGRSFAEHSHEQLVAKLQRIIGLATFNRDRSETIDKQVRRLDELCQDAAGVNFNGFASRLREKGPHWSAEVFNKLPGFIARLEKLKTDINNLNDAPIFLDIDDEVVSVKSLYGDYDTPQDFLEAFDSLVQRSPNAQPALQAVINRPRDLTRKGLVELQEWFDRQHFEESSLRKAWKETRNEDIAARLIGHIRRAAVGDALKPFEERVDHALTRIKGENDWSSEQLSWLDRLAQALKEKVVLDDDVFKTGNFHRRGGKAMLQRTFDDNLDTLLGKFSDYIWDELA
[1]
  total protein half-life in vivo: 5.34 ± 0.76 h
[2]
  total protein half-life in vivo: 4.93 ± 0.26 h
[3]
  total protein half-life in vivo: 3.45 ± 0.22 h
[4]
  total protein half-life in vivo: 3.899 ± 0.015 h
[5]
  total protein half-life in vivo: 3.07 ± 0.13 h
[6]
  total protein half-life in vivo: 2.49 ± 0.13 h
[7]
  total protein half-life in vivo: 4.7 ± 0.1 h
[8]
  total protein half-life in vivo: 7.2 ± 0.38 h
[9]
  total protein half-life in vivo: 3.52 ± 0.2 h
[10]
  total protein half-life in vivo: 5.31 ± 0.98 h
[11]
  total protein half-life in vivo: 3.94 ± 0.11 h
[12]
  total protein half-life in vivo: 6.58 ± 0.092 h

## MLSFLWDLASFIVALGVLITVHEFGHFWVARRCGVRVERFSIGFGKALWRRTDKLGTEYVIALIPLGGYVKMLDERAEPVVPELRHHAFNNKSVGQRAAIIAAGPVANFIFAIFAYWLVFIIGVPGVRPVVGEIAANSIAAEAQIAPGTELKAVDGIETPDWDAVRLQLVDKIGDESTTITVAPFGSDQRRDVKLDLRHWAFEPDKEDPVSSLGIRPRGPQIEPVLENVQPNSAASKAGLQAGDRIVKVDGQPLTQWVTFVMLVRDNPGKSLALEIERQGSPLSLTLIPESKPGNGKAIGFVGIEPKVIPLPDEYKVVRQYGPFNAIVEATDKTWQLMKLTVSMLGKLITGDVKLNNLSGPISIAKGAGMTAELGVVYYLPFLALISVNLGIINLFPLPVLDGGHLLFLAIEKIKGGPVSERVQDFCYRIGSILLVLLMGLALFNDFSRL [P0AEH1]
[1]
  total protein half-life in vivo: 5.38 ± 0.54 h
[2]
  total protein half-life in vivo: 4.76 ± 0.25 h
[3]
  total protein half-life in vivo: 4.25 ± 0.049 h
[4]
  total protein half-life in vivo: 5.088 ± 0.044 h
[5]
  total protein half-life in vivo: 4.624 ± 0.034 h
[6]
  total protein half-life in vivo: 2.69 ± 0.22 h
[7]
  total protein half-life in vivo: 4.23 ± 0.79 h
[8]
  total protein half-life in vivo: 7.59 ± 0.17 h
[9]
  total protein half-life in vivo: 4.2 ± 0.15 h
[10]
  total protein half-life in vivo: 7.28 ± 0.63 h
[11]
  total protein half-life in vivo: 4.17 ± 0.6 h
[12]
  total protein half-life in vivo: 6.21 ± 0.8 h

## MFDNLTDRLSRTLRNISGRGRLTEDNVKDTLREVRMALLEADVALPVVREFINRVKEKAVGHEVNKSLTPGQEFVKIVRNELVAAMGEENQTLNLAAQPPAVVLMAGLQGAGKTTSVGKLGKFLREKHKKKVLVVSADVYRPAAIKQLETLAEQVGVDFFPSDVGQKPVDIVNAALKEAKLKFYDVLLVDTAGRLHVDEAMMDEIKQVHASINPVETLFVVDAMTGQDAANTAKAFNEALPLTGVVLTKVDGDARGGAALSIRHITGKPIKFLGVGEKTEALEPFHPDRIASRILGMGDVLSLIEDIESKVDRAQAEKLASKLKKGDGFDLNDFLEQLRQMKNMGGMASLMGKLPGMGQIPDNVKSQMDDKVLVRMEAIINSMTMKERAKPEIIKGSRKRRIAAGCGMQVQDVNRLLKQFDDMQRMMKKMKKGGMAKMMRSMKGMMPPGFPGR [P0AGD7]
[1]
  total protein half-life in vivo: 5.51 ± 0.064 h
[2]
  total protein half-life in vivo: 5.31 ± 0.54 h
[3]
  total protein half-life in vivo: 4.4 ± 0.073 h
[4]
  total protein half-life in vivo: 5.49 ± 0.42 h
[5]
  total protein half-life in vivo: 4.58 ± 0.087 h
[6]
  total protein half-life in vivo: 2.85 ± 0.033 h
[7]
  total protein half-life in vivo: 4.898 ± 0.04 h
[8]
  total protein half-life in vivo: 8.739 ± 0.073 h
[9]
  total protein half-life in vivo: 4.28 ± 0.099 h
[10]
  total protein half-life in vivo: 7.9 ± 0.14 h
[11]
  total protein half-life in vivo: 4.6 ± 0.13 h
[12]
  total protein half-life in vivo: 9.883 ± 0.071 h

## MRYRIFLLFFFALLPTSLVWAAPAQRAFSDWQVTCNNQNFCVARNTGDHNGLVMTLSRSAGAHTDAVLRIERGGLKSPEASEGEIAPRLLLDGEPLALSGDKWRISPWLLVTDDTATITAFLQMIQEGKAITLRDGDQTISLSGLKAALLFIDAQQKRVGSETAWIKKGDEPPLSVPPAPALKEVAVVNPTPTPLSLEERNDLLDYGNWRMNGLRCSLDPLRREVNVTALTDDKALMMISCEAGAYNTIDLAWIVSRKKPLASRPVRLRLPFNNGQETNELELMNATFDEKSRELVTLAKGRGLSDCGIQARWRFDGQRFRLVRYAAEPTCDNWHGPDAWPTLWITR
[1]
  total protein half-life in vivo: 4.79 ± 0.75 h
[2]
  total protein half-life in vivo: 5.182 ± 0.02 h
[3]
  total protein half-life in vivo: 6.05 ± 0.37 h
[4]
  total protein half-life in vivo: 5.51 ± 0.2 h
[5]
  total protein half-life in vivo: 5.55 ± 0.54 h
[6]
  total protein half-life in vivo: 3.44 ± 0.45 h
[7]
  total protein half-life in vivo: 5.86 ± 1.1 h
[8]
  total protein half-life in vivo: 10.4 ± 2 h
[9]
  total protein half-life in vivo: 5.2 ± 0.56 h
[10]
  total protein half-life in vivo: 12.9 ± 3.8 h
[11]
  total protein half-life in vivo: 4.81 ± 0.49 h
[12]
  total protein half-life in vivo: 9.92 ± 0.41 h

## MFKRRYVTLLPLFVLLAACSSKPKPTETDTTTGTPSGGFLLEPQHNVMQMGGDFANNPNAQQFIDKMVNKHGFDRQQLQEILSQAKRLDSVLRLMDNQAPTTSVKPPSGPNGAWLRYRKKFITPDNVQNGVVFWNQYEDALNRAWQVYGVPPEIIVGIIGVETRWGRVMGKTRILDALATLSFNYPRRAEYFSGELETFLLMARDEQDDPLNLKGSFAGAMGYGQFMPSSYKQYAVDFSGDGHINLWDPVDAIGSVANYFKAHGWVKGDQVAVMANGQAPGLPNGFKTKYSISQLAAAGLTPQQPLGNHQQASLLRLDVGTGYQYWYGLPNFYTITRYNHSTHYAMAVWQLGQAVALARVQ
[1]
  total protein half-life in vivo: 5.38 ± 0.079 h
[2]
  total protein half-life in vivo: 5.65 ± 2 h
[5]
  total protein half-life in vivo: 5.5 ± 0.089 h
[6]
  total protein half-life in vivo: 3.61 h
[9]
  total protein half-life in vivo: 5.55 ± 0.14 h
[10]
  total protein half-life in vivo: 10.8 h
[11]
  total protein half-life in vivo: 5.1 h
[12]
  total protein half-life in vivo: > 16 h

## MKAARQQAIVDLLLNHTSLTTEALSEQLKVSKETIRRDLNELQTQGKILRNHGRAKYIHRQNQDSGDPFHIRLKSHYAHKADIAREALAWIEEGMVIALDASSTCWYLARQLPDINIQVFTNSHPICHELGKRERIQLISSGGTLERKYGCYVNPSLISQLKSLEIDLFIFSCEGIDSSGALWDSNAINADYKSMLLKRAAQSLLLIDKSKFNRSGEARIGHLDEVTHIISDERQVATSLVTA [P0ACK8]
[1]
  total protein half-life in vivo: 4.82 ± 0.058 h
[2]
  total protein half-life in vivo: 2.74 ± 0.14 h
[5]
  total protein half-life in vivo: 0.618 h
[6]
  total protein half-life in vivo: 0.695 ± 0.079 h
[7]
  total protein half-life in vivo: 1.09 h
[8]
  total protein half-life in vivo: 1.36 ± 0.31 h
[9]
  total protein half-life in vivo: 1.3 h
[10]
  total protein half-life in vivo: 0.218 h

From the supplement of paper PMC11246515
